Laboratory results published in US20050089521A1 (published 2005).
One block for each binder: values may come before it.

Molecular target: T1, human trkC (human, UniProt Q16288 32-429, limits assumed)
T1 construct: also called htrkC; trkC receptor
Assay: BIAcore analysis (SPR); format not stated

Kd: ~0.04 µM
B1: mouse anti-trkC agonist monoclonal antibody 2256 (antibody, V domains shown)
VH: QVQLQQPGAELVKPGASVKLSCKASGYTFTSYWMHWVKQRPGQGLEWIGEIYPSNGRTNYNEKFKSKATLTVDKSSSTAYMQLSSLTSEDSAVYYCARKYYYGNSYRSWYFDVWGAGTTLTVS
VL: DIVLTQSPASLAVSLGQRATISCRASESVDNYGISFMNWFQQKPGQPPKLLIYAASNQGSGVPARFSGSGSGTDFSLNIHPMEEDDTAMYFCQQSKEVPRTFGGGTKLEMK

Kd: ~0.00028 µM
B2: humanized anti-trkC agonist antibody A5 (antibody, V domains shown)
VH: QVQLVQSGAEVKKPGASVKVSCKASGYTFTSYRIHWVRQAPGQGLEWMGEIYPSNARTNYNEKFKSRVTMTRDTSTSTVYMELSSLRSEDTAVYYCARKYYYGNTRRSWYFDVWGQGTTVTVS
VL: DIQMTQSPSSLSASVGDRVTITCRASESIDNYGISFLAWYQQKPGKAPKLLIYAASNRGSGVPSRFSGSGSGTDFTFTISSLQPEDIATYYCQQSKTVPRTFGQGTKLEIKR
notes: also called humanized monoclonal antibody A5
